Test results reported in patent publication US20260308269 (published 2026).
Positions count from the first letter of the chain named. Like-named read-outs stand apart in the source and are kept apart here.

T1: human TfR apical domain (human)
T1 chain: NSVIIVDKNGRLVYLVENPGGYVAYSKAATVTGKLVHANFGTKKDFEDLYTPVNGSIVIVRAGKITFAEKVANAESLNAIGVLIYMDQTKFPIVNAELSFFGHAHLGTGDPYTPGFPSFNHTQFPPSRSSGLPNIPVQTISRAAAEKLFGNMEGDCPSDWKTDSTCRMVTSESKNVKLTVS

T2: human CD98hc (human)
T2 chain: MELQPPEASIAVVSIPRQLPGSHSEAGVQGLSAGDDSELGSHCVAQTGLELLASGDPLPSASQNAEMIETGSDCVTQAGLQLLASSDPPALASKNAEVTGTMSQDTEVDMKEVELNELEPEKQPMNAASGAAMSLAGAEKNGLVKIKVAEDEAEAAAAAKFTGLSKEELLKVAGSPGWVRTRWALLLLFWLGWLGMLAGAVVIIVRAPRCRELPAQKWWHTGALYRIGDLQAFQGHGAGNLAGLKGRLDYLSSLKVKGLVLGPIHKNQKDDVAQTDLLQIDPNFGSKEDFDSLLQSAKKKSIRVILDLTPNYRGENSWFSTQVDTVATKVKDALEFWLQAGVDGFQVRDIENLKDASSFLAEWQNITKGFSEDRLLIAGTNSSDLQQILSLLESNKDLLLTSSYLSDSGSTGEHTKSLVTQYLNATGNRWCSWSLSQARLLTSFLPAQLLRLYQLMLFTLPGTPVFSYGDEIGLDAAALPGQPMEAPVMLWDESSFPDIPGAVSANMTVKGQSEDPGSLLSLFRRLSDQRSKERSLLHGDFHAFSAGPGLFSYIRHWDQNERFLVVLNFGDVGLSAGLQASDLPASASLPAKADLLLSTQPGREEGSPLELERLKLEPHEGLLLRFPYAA

B1: 35.d1.12 (protein)
chain: ASTKGPSVFPLAPSSKSTSGGTAALGCLVKDYFPEPVTVSWNSGALTSGVHTFPAVLQSSGLYSLSSVVTVPSSSLGTQTYICNVNHKPSNTKVDKKVEPKSCDKTHTCPPCPAPELLGGPSVFLFPPKPKDTLMISRTPEVTCVVVDVSHEDPEVKFNWYVDGVEVHNAKTKPREEQYNSTYRVVSVLTVLHQDWLNGKEYKCKVSNKALPAPIEKTISKAKGQPREPQVYTLPPSRDELTKNQVSLTCLVKGFYPSDIAVEWESFGTEWSNYKTTPPVLDSDGSFFLYSKLTVSKSEWQQGFVFSCSVMHEALHNHYTQKSLSLSPELQLEESCAEAQDGELDGLWTT
B2: 35.d1.8 (protein)
chain: B1 chain with F267Y, T269N, S296T
B3: 42.2.3-1H (protein)
chain: APELLGGPSVFLFPPKPKDTLMISRTPEVTCVVVDVSHEDPEVKFNWYVDGVEVHNAKTKPREEQYNSTYRVVSVLTVLHQDWLNGKEYKCKVSNKALPAPIEKTISKAKGQPREPQVYTLPPSRDELTKNQVSLTCLVKGFYPSDIAVEWFYGNAKETNYKTTPPVLDSDGSFFLYSKLTVDKSRWQQGNLFACEVMHEALHNHYTYKLLSLSPGK
B4: LLB1-3-16 (protein)
chain: APELLGGPSVFLFPPKPKDTLMISRTPEVTCVVVDVSHEDPEVKFNWYVDGVEVHNAKTKPREEQYNSTYRVVSVLTVLHQDWLNGKEYKCKVSNKALPAPIEKTISKAKGQPREPQVYTLPPSRDELTKNQVSLTCLVKGFYPSDIAVEWRTYKPYETNYKTTPPVLDSDGSFFLYSKLTVDKSRWQQGDIFVCDVLHEALHNHFTIKKLSLSPGK
B5: 35.d1.18 (protein)
chain: B1 chain with F304Y
B6: 42.8.80 (protein)
chain: B3 chain with Y153S, G154E, N155G, A156S
B7: LLB1-3-16-2 (protein)
chain: B4 chain with L198M
B8: 35.d1.21 (protein)
chain: B1 chain with F267Y, S272V, F304Y
B9: LLB2-10-8-d6 (protein)
chain: APELLGGPSVFLFPPKPKDTLMISRTPEVTCVVVDVSHEDPEVKFNWYVDGVEVHNAKTKPREEQYNSTYRVVSVLTVLHQDWLNGKEYKCKVSNKALPAPIEKTISKAKGQPREPQVYTLPPSRDELTKNQVSLTCLVKGFYPSDIAVLWNSRFVLENNYKTTPPVLDSDGSFFLYSKLTVDKSRWQQGNVFACNVYHEALHNHYTFKNLALSPGK
B10: 42.8.196 (protein)
chain: B3 chain with G154E, N155A, A156Q, E158L, T159N
B11: LLB2.10.8.10.3 (protein)
chain: B9 chain with N191E, V192I, A212R
B12: 35.d1.11 (protein)
chain: B1 chain with F267Y, S296T, F304Y
B13: 35.d1.13 (protein)
chain: B1 chain with F267Y, T269N
B14: 35.d1.17 (protein)
chain: B1 chain with S272T
B15: 6.5.11.5.42.1 (protein)
chain: B3 chain with Y153S, N155G
B16: CH3C.1.35 (protein)
chain: B1 chain with F267Y, N273S, S296T
B17: LLB2-10-8.d28 (protein)
chain: B9 chain with N152S, F155Y
B18: LLB2-37 (protein)
chain: B9 chain with R154Q, V156H, V192I, A212L
B19: 35.d1.7 (protein)
chain: B1 chain with F267Y, N273S, F304Y
B20: LLB2-10-8-d12 (protein)
chain: B9 chain with R154H, F155Y, V156E
B21: 42.8.17 (protein)
chain: B3 chain with Y153S, N155A, A156Q, E158L
B22: 35.d1.24 (protein)
chain: B1 chain with F267Y, S298E, F304Y
B23: LLB2-10-8 (protein)
chain: B9 chain with N191E, V192I
B24: 35.d1.20 (protein)
chain: B1 chain with F267Y, S272V
B25: 35.d1.19 (protein)
chain: B1 chain with S272V, F304Y
B26: 35.d1.22 (protein)
chain: B1 chain with F267Y, T269N, S298E
B27: 35.d1.4 (protein)
chain: B1 chain with N273S
B28: 35.d1.14 (protein)
chain: B1 chain with F267Y, S272T
B29: 35.d1.5 (protein)
chain: B1 chain with F267Y, T269N, N273S
B30: 35.d1.15 (protein)
chain: B1 chain with F267Y, F304Y
B31: 35.d1.1 (protein)
chain: B1 chain with F267Y, T269N, N273S, S296T
B32: 35.d1.23 (protein)
chain: B1 chain with F267Y, S272T, S298E
B33: 42.8.15 (protein)
chain: B3 chain with Y153S, N155A, A156Q, T159S
B34: 35.d1.2 (protein)
chain: B1 chain with F267Y, S272T, N273S, S296T
B35: LLB2.10.8.14.3 (protein)
chain: B9 chain with N191E, V192I, Y206R, A212R
B36: 35.d1.3 (protein)
chain: B1 chain with F267Y, N273S, S296T, F304Y
B37: 35.d1.6 (protein)
chain: B1 chain with F267Y, S272T, N273S
B38: 35.d1.16 (protein)
chain: B1 chain with T269N

Columns and labels:
Test in all cases: SPR
[1] = biological target: T1, human TfR apical domain
[2] = biological target: T1, human TfR apical domain
[3] = biological target: T2, human CD98hc

| Binder | Kd [1] | also measured |
| --- | --- | --- |
| B1 | 1.6 µM |  |
| B2 | 13.2 µM |  |
| B3 |  | Kd [2]: 0.22 µM |
| B4 |  | Kd [3]: 0.032 µM |
| B5 | 4.4 µM |  |
| B6 |  | Kd [2]: 2.38 µM |
| B7 |  | Kd [3]: 0.175 µM |
| B8 | 14.1 µM |  |
| B9 |  | Kd [3]: 0.55 µM |
| B10 |  | Kd [2]: 0.924 µM |
| B11 |  | Kd [3]: 0.043 µM |
| B12 | 2.5 µM |  |
| B13 | 18.5 µM |  |
| B14 | 18.8 µM |  |
| B15 |  | Kd [2]: 0.84 µM |
| B16 | 0.61 µM |  |
| B17 |  | Kd [3]: 4.2 µM |
| B18 |  | Kd [3]: 0.61 µM |
| B19 | 3 µM |  |

| Binder | Kd [1] | also measured |
| --- | --- | --- |
| B20 |  | Kd [3]: 2.1 µM |
| B21 |  | Kd [2]: 10.4 µM |
| B22 | 1.1 µM |  |
| B23 |  | Kd [3]: 0.17 µM |
| B24 | 3.6 µM |  |
| B25 | 16 µM |  |
| B26 | 5.2 µM |  |
| B27 | 1.4 µM |  |
| B28 | 11.7 µM |  |
| B29 | 13.6 µM |  |
| B30 | 3.6 µM |  |
| B31 | 6.2 µM |  |
| B32 | 3.5 µM |  |
| B33 |  | Kd [2]: 5.96 µM |
| B34 | 4.3 µM |  |
| B35 |  | Kd [3]: 0.02 µM |
| B36 | 1.3 µM |  |
| B37 | 11.2 µM |  |
| B38 | 35.6 µM |  |
